# T1: PPIH W133A mutant (human, UniProt O43447 1-177, W133A)
# T1 sequence: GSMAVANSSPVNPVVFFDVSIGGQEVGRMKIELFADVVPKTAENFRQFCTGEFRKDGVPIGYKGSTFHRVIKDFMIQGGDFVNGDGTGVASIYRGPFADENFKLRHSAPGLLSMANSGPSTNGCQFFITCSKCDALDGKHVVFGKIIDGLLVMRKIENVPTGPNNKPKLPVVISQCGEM
# How the values were obtained:
# [1] = molecular target: T2, peptidyl-prolyl isomerase H (PPIH), full length, wild type (human, UniProt O43447 1-177); test: AUC
# PPIH W133A mutant = molecular target: T1, PPIH W133A mutant; test: SPR
# [2] = molecular target: T2, peptidyl-prolyl isomerase H (PPIH), …; test: SPR
Binder,stoichiometry N [1],binding result (PPIH W133A mutant),Kd (PPIH W133A mutant) [µM],Kd [2] [µM]
"pre-mRNA processing factor 4 (PRPF4), residues 106-169 (domain or fragment, human, UniProt O43172 106-169, looked up) SEVKACLRALGEPITLFGEGPAERRERLRNILSVVGTDALKKTKKDDEKSKKSKEEYQQTWYHE",2,binds,–,–
"pre-mRNA processing factor 4 (PRPF4), residues 1-169 (domain or fragment, human, UniProt O43172 1-169, looked up) MASSRASSTQATKTKAPDDLVAPVVKKPHIYYGSLEEKERERLAKGESGILGKDGLKAGIEAGNINITSGEVFEIEEHISERQAEVLAEFERRKRARQINVSTDDSEVKACLRALGEPITLFGEGPAERRERLRNILSVVGTDALKKTKKDDEKSKKSKEEYQQTWYHE",–,binds,–,0.39 ± 0.04
"PRPF4 residues 1-169 with F122A (domain or fragment, human, UniProt O43172 1-169, looked up) MASSRASSTQATKTKAPDDLVAPVVKKPHIYYGSLEEKERERLAKGESGILGKDGLKAGIEAGNINITSGEVFEIEEHISERQAEVLAEFERRKRARQINVSTDDSEVKACLRALGEPITLAGEGPAERRERLRNILSVVGTDALKKTKKDDEKSKKSKEEYQQTWYHE",–,–,–,15.6

# Continued, values first:
stoichiometry N [1],binding result (PPIH W133A mutant),Kd (PPIH W133A mutant) [µM],Kd [2] [µM],Binder
–,–,1,–,"PRPF4 residues 106-169 with F122A (domain or fragment, human, UniProt O43172 106-169, looked up) SEVKACLRALGEPITLAGEGPAERRERLRNILSVVGTDALKKTKKDDEKSKKSKEEYQQTWYHE"
–,binds,–,10.8 ± 1.37,"pre-mRNA processing factor 4 (PRPF4), residues 1-98 (domain or fragment, human, UniProt O43172 1-98, looked up) MASSRASSTQATKTKAPDDLVAPVVKKPHIYYGSLEEKERERLAKGESGILGKDGLKAGIEAGNINITSGEVFEIEEHISERQAEVLAEFERRKRARQ"

# — article PMC5682932 (The Biochemical journal, 2017)
